In patent US20200282035A1 (MILTENYI BIOTEC B V, published 2020):

Columns and labels:
CD142 [1] = molecular target: T1, CD142 (human, UniProt P13726 33-295); experiment: scFv as binding domain of a CAR on T cells; told in words only, no direct binding assay
T1 construct: whole, on cells

TSPAN8 = molecular target: T2, TSPAN8 (human, UniProt P19075 1-237); experiment: as above
T2 construct: whole, on cells
T2 sequence (looked up): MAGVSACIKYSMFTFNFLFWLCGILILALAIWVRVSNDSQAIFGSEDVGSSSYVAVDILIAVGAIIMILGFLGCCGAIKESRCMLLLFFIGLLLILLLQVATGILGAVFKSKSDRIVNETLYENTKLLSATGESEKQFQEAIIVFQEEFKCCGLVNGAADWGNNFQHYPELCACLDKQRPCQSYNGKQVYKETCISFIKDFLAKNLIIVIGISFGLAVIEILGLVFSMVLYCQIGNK

CD318 = molecular target: T3, CD318 (human, UniProt Q9H5V8 30-836); experiment: as above
T3 construct: whole, on cells
T3 sequence (looked up): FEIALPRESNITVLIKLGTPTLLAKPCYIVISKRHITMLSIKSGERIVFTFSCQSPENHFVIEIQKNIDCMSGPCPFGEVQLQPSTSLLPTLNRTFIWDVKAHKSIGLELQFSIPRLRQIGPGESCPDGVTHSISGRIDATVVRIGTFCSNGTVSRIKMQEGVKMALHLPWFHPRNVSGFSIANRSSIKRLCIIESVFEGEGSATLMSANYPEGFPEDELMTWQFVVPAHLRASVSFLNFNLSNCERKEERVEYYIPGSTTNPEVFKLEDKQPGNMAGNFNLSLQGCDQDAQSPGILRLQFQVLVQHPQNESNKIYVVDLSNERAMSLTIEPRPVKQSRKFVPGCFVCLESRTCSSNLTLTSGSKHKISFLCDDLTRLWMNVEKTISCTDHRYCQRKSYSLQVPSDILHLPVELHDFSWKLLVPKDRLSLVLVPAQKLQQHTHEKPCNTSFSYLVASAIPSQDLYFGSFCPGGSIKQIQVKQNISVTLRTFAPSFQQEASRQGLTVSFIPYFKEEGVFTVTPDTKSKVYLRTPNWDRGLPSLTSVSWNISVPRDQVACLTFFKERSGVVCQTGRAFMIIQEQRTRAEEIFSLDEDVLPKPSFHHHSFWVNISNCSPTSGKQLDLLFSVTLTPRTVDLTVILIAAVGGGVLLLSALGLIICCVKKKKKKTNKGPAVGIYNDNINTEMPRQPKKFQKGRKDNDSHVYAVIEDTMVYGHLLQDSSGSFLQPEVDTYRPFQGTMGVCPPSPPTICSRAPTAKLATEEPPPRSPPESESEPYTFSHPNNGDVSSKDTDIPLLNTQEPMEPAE

CD142 [2] = molecular target: T1, CD142; experiment: antibody used for staining of human pancreatic cancer cells (flow cytometry, immunohistochemistry; Example 1); told in words only
CD66c [3] = molecular target: T4, CD66c (human, UniProt P40199 35-320); experiment: scFv as binding domain of a CAR on T cells; told in words only, no direct binding assay
T4 construct: whole, on cells
T4 sequence (looked up): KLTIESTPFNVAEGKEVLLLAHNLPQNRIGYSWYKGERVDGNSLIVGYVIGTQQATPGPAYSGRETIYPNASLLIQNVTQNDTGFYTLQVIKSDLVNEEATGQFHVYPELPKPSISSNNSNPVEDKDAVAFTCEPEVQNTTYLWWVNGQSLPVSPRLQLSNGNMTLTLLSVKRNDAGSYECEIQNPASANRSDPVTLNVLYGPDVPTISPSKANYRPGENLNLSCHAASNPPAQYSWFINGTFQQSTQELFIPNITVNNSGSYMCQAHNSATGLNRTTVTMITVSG

CD73 [4] = molecular target: T5, CD73 (human, UniProt P21589 27-549); experiment: as above
T5 construct: whole, on cells
T5 sequence (looked up): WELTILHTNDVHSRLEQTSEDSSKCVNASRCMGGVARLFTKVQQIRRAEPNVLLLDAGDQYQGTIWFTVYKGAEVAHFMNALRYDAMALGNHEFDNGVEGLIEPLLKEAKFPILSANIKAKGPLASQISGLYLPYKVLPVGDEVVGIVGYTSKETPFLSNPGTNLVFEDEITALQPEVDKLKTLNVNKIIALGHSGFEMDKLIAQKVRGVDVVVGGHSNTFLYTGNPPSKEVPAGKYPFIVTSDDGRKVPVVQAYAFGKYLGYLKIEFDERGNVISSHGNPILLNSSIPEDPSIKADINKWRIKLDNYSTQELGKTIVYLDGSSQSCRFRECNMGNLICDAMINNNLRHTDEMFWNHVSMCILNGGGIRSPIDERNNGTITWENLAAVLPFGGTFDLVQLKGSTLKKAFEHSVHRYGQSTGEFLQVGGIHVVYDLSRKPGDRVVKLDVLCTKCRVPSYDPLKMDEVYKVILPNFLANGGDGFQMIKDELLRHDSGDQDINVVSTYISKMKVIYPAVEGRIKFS

CD73 [5] = molecular target: T5, CD73; experiment: antibody used for staining of human pancreatic cancer cells (flow cytometry, immunohistochemistry; Example 1); told in words only
CD66c [6] = molecular target: T4, CD66c; experiment: as above

B1: CD142 specific CAR sequence VH-linker-VL (scFv)
scFv: QVQLKQSGPGLVQPSQSLSITCTVSGFSLSNYGVHWVRQSPGKGLEWLGVIWSGGSTDYNVAFISRLIITKDNSKSQVFLKMNSLQADDTAIYFCARTTGSVFNAMDHWGQGTSVTVSSGGGGSGGGGSGGGGSQIVLTQSPALMSASPGEKVTMTCSASSSVTYMYWYQQKPRSSPKPWIYLTSNLASGVPARFSGSGSGTSYSLTISSVEAEDAATYYCQQWSSNPLTFGAGTKLELK
notes: not shown: hinge, transmembrane and signalling domains of the CAR
binding result (CD142 [1]): binds

B2: TSPAN8 specific CAR sequence VL-linker-VH (scFv)
scFv: DIQMTQSPASLSASLEEIVTITCQASQDIGNWLSWYQQKPGKSPQLLIYGATSLADGVPSRFSGSRSGTQYSLKISRLQVEDIRIYYCLQAYSAPWTFGGGTKLELKGGGGSGGGGSGGGGSEVKLLESGGGLVQPGGSMRLSCAASGFTFTDFYMNWIRQPAGKAPEWLGFIRNKASGYTTEYNPSVKGRFTISRDNTQNMLYLQMNTLRAEDTATYYCARAHSYYGYDYFDYWGQGVMVTVSS
notes: as for B1
binding result (TSPAN8): binds

B3: CD318 specific CAR sequence VH-linker-VL (scFv)
scFv: EVQLQQSGAELVRPGALVKLSCKASGFNIKDYYIHWVKQRPEQGLEWIGWIDPENGHTIYDPKFQGKASITADTSSNTAYLQLSSLTSEDTAVYYCARLTGTTYAMDYWGQGTSVTVSSGGGGSGGGGSGGGGSDIVMTQSHKFMSTSVGDRVSITCKASQDVSTAVAWYQQKSGQSPKLLIYWASTRHTGVPDRFTGSGSGTDYTLTISSVQAEDLALYYCQQHYSTPYTFGGGTKLEIK
notes: as for B1
binding result (CD318): binds

B4: CD142 specific antibody (antibody, V domains shown)
VH: QVQLKQSGPGLVQPSQSLSITCTVSGFSLSNYGVHWVRQSPGKGLEWLGVIWSGGSTDYNVAFISRLIITKDNSKSQVFLKMNSLQADDTAIYFCARTTGSVFNAMDHWGQGTSVTVSS
VL: QIVLTQSPALMSASPGEKVTMTCSASSSVTYMYWYQQKPRSSPKPWIYLTSNLASGVPARFSGSGSGTSYSLTISSVEAEDAATYYCQQWSSNPLTFGAGTKLELK
notes: also called CD142 VH
binding result (CD142 [2]): binds

B5: TSPAN8 specific CAR sequence VH-linker-VL (scFv)
scFv: EVKLLESGGGLVQPGGSMRLSCAASGFTFTDFYMNWIRQPAGKAPEWLGFIRNKASGYTTEYNPSVKGRFTISRDNTQNMLYLQMNTLRAEDTATYYCARAHSYYGYDYFDYWGQGVMVTVSSGGGGSGGGGSGGGGSDIQMTQSPASLSASLEEIVTITCQASQDIGNWLSWYQQKPGKSPQLLIYGATSLADGVPSRFSGSRSGTQYSLKISRLQVEDIRIYYCLQAYSAPWTFGGGTKLELK
notes: as for B1
binding result (TSPAN8): binds

B6: CD66c specific CAR sequence VH-linker-VL (scFv)
scFv: QVTLKESGPGILKPSQTLSLTCSFSGFSLSTSGMGVGWIRQPSGKSLEWLAHIWWNDERYYNPSLKNQLTISKDTSRNQVFLKITSVDTADTATYYCARSPRGYFDYWGHGTTLTVSSGGGGSGGGGSGGGGSDIVMTQSQKFMSTSVGDRVSVTCKASQNVVTNVAWYQQTPGQSPKALIYSASYRYSGVPDRFSGSGSGTDFTLTISNVQSGDLAEYFCQQYNSYPLTFGAGTKLELK
notes: as for B1
binding result (CD66c [3]): binds

B7: CD142 specific CAR sequence VL-linker-VH (scFv)
scFv: QIVLTQSPALMSASPGEKVTMTCSASSSVTYMYWYQQKPRSSPKPWIYLTSNLASGVPARFSGSGSGTSYSLTISSVEAEDAATYYCQQWSSNPLTFGAGTKLELKGGGGSGGGGSGGGGSQVQLKQSGPGLVQPSQSLSITCTVSGFSLSNYGVHWVRQSPGKGLEWLGVIWSGGSTDYNVAFISRLIITKDNSKSQVFLKMNSLQADDTAIYFCARTTGSVFNAMDHWGQGTSVTVSS
notes: as for B1
binding result (CD142 [1]): binds

B8: CD73 specific CAR sequence VL-linker-VH (scFv)
scFv: DIVMTQSHKFMSTSVGDRVSITCKASQDVGSAVAWYQQKPGQSPKLLIYWASTRHTGVPDRFTGSGSGTDFTLTISNVQSEDLADYFCQQYSSYPLTFGAGTKLELKGGGGSGGGGSGGGGSEVQLQQSGAELVKPGASVKLSCTASGFNIKDTYIHWVKQRPEQGLEWIGRIDPATGNTEYDPKFQGKATITADTSSNTAYLHLSSLTSEDTAVYYCARGYYGSSYPPWFAYWGQGTLVTVSA
notes: as for B1
binding result (CD73 [4]): binds

B9: CD73 specific antibody (antibody, V domains shown)
VH: EVQLQQSGAELVKPGASVKLSCTASGFNIKDTYIHWVKQRPEQGLEWIGRIDPATGNTEYDPKFQGKATITADTSSNTAYLHLSSLTSEDTAVYYCARGYYGSSYPPWFAYWGQGTLVTVSA
VL: DIVMTQSHKFMSTSVGDRVSITCKASQDVGSAVAWYQQKPGQSPKLLIYWASTRHTGVPDRFTGSGSGTDFTLTISNVQSEDLADYFCQQYSSYPLTFGAGTKLELK
notes: also called CD73 VH
binding result (CD73 [5]): binds

B10: CD73 specific CAR sequence VH-linker-VL (scFv)
scFv: EVQLQQSGAELVKPGASVKLSCTASGFNIKDTYIHWVKQRPEQGLEWIGRIDPATGNTEYDPKFQGKATITADTSSNTAYLHLSSLTSEDTAVYYCARGYYGSSYPPWFAYWGQGTLVTVSAGGGGSGGGGSGGGGSDIVMTQSHKFMSTSVGDRVSITCKASQDVGSAVAWYQQKPGQSPKLLIYWASTRHTGVPDRFTGSGSGTDFTLTISNVQSEDLADYFCQQYSSYPLTFGAGTKLELK
notes: as for B1
binding result (CD73 [4]): binds

B11: CD318 specific CAR sequence VL-linker-VH (scFv)
scFv: DIVMTQSHKFMSTSVGDRVSITCKASQDVSTAVAWYQQKSGQSPKLLIYWASTRHTGVPDRFTGSGSGTDYTLTISSVQAEDLALYYCQQHYSTPYTFGGGTKLEIKGGGGSGGGGSGGGGSEVQLQQSGAELVRPGALVKLSCKASGFNIKDYYIHWVKQRPEQGLEWIGWIDPENGHTIYDPKFQGKASITADTSSNTAYLQLSSLTSEDTAVYYCARLTGTTYAMDYWGQGTSVTVSS
notes: as for B1
binding result (CD318): binds

B12: CD66c specific antibody (antibody, V domains shown)
VH: QVTLKESGPGILKPSQTLSLTCSFSGFSLSTSGMGVGWIRQPSGKSLEWLAHIWWNDERYYNPSLKNQLTISKDTSRNQVFLKITSVDTADTATYYCARSPRGYFDYWGHGTTLTVSS
VL: DIVMTQSQKFMSTSVGDRVSVTCKASQNVVTNVAWYQQTPGQSPKALIYSASYRYSGVPDRFSGSGSGTDFTLTISNVQSGDLAEYFCQQYNSYPLTFGAGTKLELK
notes: also called CD66c VH
binding result (CD66c [6]): binds

B13: CD66c specific CAR sequence VL-linker-VH (scFv)
scFv: DIVMTQSQKFMSTSVGDRVSVTCKASQNVVTNVAWYQQTPGQSPKALIYSASYRYSGVPDRFSGSGSGTDFTLTISNVQSGDLAEYFCQQYNSYPLTFGAGTKLELKGGGGSGGGGSGGGGSQVTLKESGPGILKPSQTLSLTCSFSGFSLSTSGMGVGWIRQPSGKSLEWLAHIWWNDERYYNPSLKNQLTISKDTSRNQVFLKITSVDTADTATYYCARSPRGYFDYWGHGTTLTVSS
notes: as for B1
binding result (CD66c [3]): binds
